From PMC12245079, “FUS Selectively Facilitates circRNAs Packing into Small Extracellular Vesicles within Hypoxia Neuron” come the findings set out here.

Common to all, as to test: EMSA; 100 nM probe; 10 mM Tris-HCl pH 8.0, 10 mM NaCl, 25 mM KCl, 1 mM MgCl2, 1 mM DTT, 1 mg/mL tRNA; room temperature 30 min; 4% native acrylamide gel, 1x TBE
One series concerns the target FUS polypeptide-3 (UniProt P35637 1-380). To be noted: protein: recombinant; tags: GST fusion (pGEX-4T-1), TEV cleavage described; label: Cy3 (3').
A further series addresses FUS polypeptide-1 (UniProt P35637 1-526). To be noted: protein: recombinant; tags: GST fusion (pGEX-4T-1), TEV cleavage described; label: Cy3 (3').
A further series concerns the target FUS polypeptide-4 (UniProt P35637 280-375). The note with it: protein: recombinant; tags: GST fusion (pGEX-4T-1), TEV cleavage described; label: Cy3 (3').
In a further series the target is FUS polypeptide-2 (UniProt P35637 50-400). The note with it: protein: commercial; tags: GST fusion (pGEX-4T-1) described; label: Cy3 (3').
Chain of FUS polypeptide-2 (P35637 50-400): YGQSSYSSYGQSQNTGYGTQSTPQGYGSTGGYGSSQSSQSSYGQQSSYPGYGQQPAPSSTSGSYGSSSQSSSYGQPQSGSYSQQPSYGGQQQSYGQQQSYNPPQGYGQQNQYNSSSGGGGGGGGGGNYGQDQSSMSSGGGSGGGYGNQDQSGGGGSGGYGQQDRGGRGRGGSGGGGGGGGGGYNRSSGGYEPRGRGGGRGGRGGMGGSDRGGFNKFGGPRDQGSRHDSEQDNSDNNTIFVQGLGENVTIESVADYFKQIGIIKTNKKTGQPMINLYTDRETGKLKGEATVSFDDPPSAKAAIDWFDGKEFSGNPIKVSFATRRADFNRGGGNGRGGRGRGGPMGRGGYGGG

Chain of FUS polypeptide-3 (P35637 1-380): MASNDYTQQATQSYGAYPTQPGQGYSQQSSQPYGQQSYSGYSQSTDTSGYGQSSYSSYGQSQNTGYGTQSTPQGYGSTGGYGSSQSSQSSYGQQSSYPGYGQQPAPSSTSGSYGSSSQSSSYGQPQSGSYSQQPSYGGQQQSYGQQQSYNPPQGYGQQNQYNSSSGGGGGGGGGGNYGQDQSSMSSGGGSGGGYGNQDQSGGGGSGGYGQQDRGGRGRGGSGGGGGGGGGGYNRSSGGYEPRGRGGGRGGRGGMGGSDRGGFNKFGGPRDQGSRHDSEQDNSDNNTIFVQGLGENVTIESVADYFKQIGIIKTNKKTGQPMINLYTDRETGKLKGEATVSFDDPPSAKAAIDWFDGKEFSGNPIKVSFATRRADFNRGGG
Chain of FUS polypeptide-1 (P35637 whole entry, the tested form may be a part): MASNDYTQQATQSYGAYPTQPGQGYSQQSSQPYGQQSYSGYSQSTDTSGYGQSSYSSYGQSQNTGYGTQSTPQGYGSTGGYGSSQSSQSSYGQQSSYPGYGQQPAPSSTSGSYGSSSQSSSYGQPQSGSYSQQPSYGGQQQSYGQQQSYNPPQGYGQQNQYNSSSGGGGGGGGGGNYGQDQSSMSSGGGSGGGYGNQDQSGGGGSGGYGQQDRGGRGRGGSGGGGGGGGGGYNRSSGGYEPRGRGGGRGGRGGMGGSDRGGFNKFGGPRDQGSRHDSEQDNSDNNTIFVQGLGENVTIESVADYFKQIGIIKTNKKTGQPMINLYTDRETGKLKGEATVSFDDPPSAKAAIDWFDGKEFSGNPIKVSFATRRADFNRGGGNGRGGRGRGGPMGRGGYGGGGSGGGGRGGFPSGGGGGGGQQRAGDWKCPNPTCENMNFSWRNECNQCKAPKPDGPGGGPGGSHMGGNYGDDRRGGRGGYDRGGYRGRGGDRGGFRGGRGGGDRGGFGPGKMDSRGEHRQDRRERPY
Chain of FUS polypeptide-4 (P35637 280-375): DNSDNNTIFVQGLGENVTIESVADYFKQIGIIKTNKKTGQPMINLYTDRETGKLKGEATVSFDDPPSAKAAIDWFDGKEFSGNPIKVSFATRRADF

Take UUGUAUUUUGAGCUAGUUUGGUGAC (ssRNA) [GGUG oligo]: the binding result is reported as “binds” with FUS polypeptide-3, “binds” with FUS polypeptide-1, “no binding” in the series with FUS polypeptide-4 and “binds” in the series with FUS polypeptide-2.
